From the supplement of paper PMC7125110
± gives the standard error. For part of these data: This sample holds only a part of the variants without activity.

B1: glmS ribozyme (parent)
chain: AUAAAAGCGCCAGAACUACAGAAAUGUAGUUGACGAGGAGGAGGUUUAUCGAAUUUUCGGCGGAUGCCUCCAAA

Key:
Conditions in all cases: with glucosamine-6-phosphate
glucosamine-6-phosphate [1] = variants of: B1; assay: kcat; higher = faster cleavage; RNA array
In short: (§1)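 Sequenced MiSeq chips were the platform: E. coli RNA polymerase transcribed barcoded ribozyme variants on them in situ, and a hybridised Cy3 probe tracked these at 37 °C. After glucosamine-6-phosphate (40 μM to 10 mM) in HEPES/KCl/Mg(OAc)2 buffer was flowed in, tiles were imaged over ~14 h. Signals normalised to baseline and to non-cleaving reference variants were reduced to per-tile medians and fit to one- or two-exponential decays to obtain kobs. kcat and KM were derived through weighted Michaelis–Menten fits across concentrations.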

glucosamine-6-phosphate [2] = variants of: B1; assay: self-cleavage kobs at 40 uM GlcN6P; higher = faster cleavage; RNA array
In short: as §1

glucosamine-6-phosphate [3] = variants of: B1; assay: self-cleavage kobs at 160 uM GlcN6P; higher = faster cleavage; RNA array
In short: as §1

glucosamine-6-phosphate [4] = variants of: B1; assay: self-cleavage kobs at 640 uM GlcN6P; higher = faster cleavage; RNA array
In short: as §1

glucosamine-6-phosphate [5] = variants of: B1; assay: self-cleavage kobs at 2500 uM GlcN6P; higher = faster cleavage; RNA array
In short: as §1

glucosamine-6-phosphate [6] = variants of: B1; assay: self-cleavage kobs at 10000 uM GlcN6P; higher = faster cleavage; RNA array
In short: as §1

glucosamine-6-phosphate [7] = variants of: B1; assay: KM; higher = weaker cofactor use; RNA array
In short: as §1

| Variant | kcat (glucosamine-6-phosphate [1]) [s⁻¹] | self-cleavage kobs at 40 uM GlcN6P (glucosamine-6-phosphate [2]) [s⁻¹] | self-cleavage kobs at 160 uM GlcN6P (glucosamine-6-phosphate [3]) [s⁻¹] | self-cleavage kobs at 640 uM GlcN6P (glucosamine-6-phosphate [4]) [s⁻¹] | self-cleavage kobs at 2500 uM GlcN6P (glucosamine-6-phosphate [5]) [s⁻¹] | self-cleavage kobs at 10000 uM GlcN6P (glucosamine-6-phosphate [6]) [s⁻¹] | KM (glucosamine-6-phosphate [7]) [µM] |
| --- | --- | --- | --- | --- | --- | --- | --- |
| G29U A53G C67G | 0.000147 ± 2.6e-05 | 5.1e-05 ± 1.8e-05 | 6.91e-05 ± 1.9e-05 | 0.000108 ± 1.9e-05 | 0.000139 ± 3.6e-05 | 0.000205 ± 4.9e-05 |  |
| A14U C50A U54G G62A C68U | 3.85e-05 ± 1.7e-05 |  |  | 7.62e-05 ± 2.5e-05 |  |  |  |
| G29C U47C | 0.000131 ± 7.3e-06 |  |  | 3.72e-05 ± 1.8e-05 | 7.73e-05 ± 1.5e-05 | 0.000112 ± 2.7e-05 | 1730 ± 250 |
| A15U G37C C70G | 2.75e-05 ± 1.1e-05 |  |  |  |  |  |  |
| A15C C70G | 7.11e-05 ± 7.6e-06 |  | 3.9e-05 ± 9.7e-06 | 6.25e-05 ± 8.5e-06 | 8.13e-05 ± 1e-05 | 5.86e-05 ± 9.3e-06 |  |
| C16G C67A | 0.00104 ± 0.00042 | 3.35e-05 ± 7e-06 |  | 0.000169 ± 6.1e-05 | 0.000618 ± 0.00021 | 0.000956 ± 0.00019 |  |
| G29C G66U | 6.74e-05 ± 1.2e-05 |  |  |  | 7.9e-05 ± 2e-05 | 5.98e-05 ± 1e-05 |  |
| G29A U56A | 0.00321 ± 0.0012 | 4.94e-05 ± 9.7e-06 | 0.000108 ± 2.2e-05 | 0.000389 ± 7.9e-05 | 0.000941 ± 0.00015 | 0.00255 ± 0.00036 |  |
| A15G A53C | 0.00857 ± 0.0011 | 0.000205 ± 3.7e-05 | 0.000653 ± 0.00021 | 0.00195 ± 0.00035 | 0.00522 ± 0.0012 | 0.00742 ± 0.0015 | 1860 ± 340 |
| A14U U47G | 0.00156 ± 0.00026 | 5.6e-05 ± 8.8e-06 | 0.000115 ± 1.4e-05 | 0.000416 ± 4.8e-05 | 0.000947 ± 0.00011 | 0.00132 ± 0.00013 | 1750 ± 450 |
| A14G U45G | 0.0225 ± 0.0076 | 0.000286 ± 0.0001 | 0.000908 ± 0.00024 | 0.00617 ± 0.0025 | 0.00864 ± 0.003 | 0.0175 ± 0.0071 | 3450 ± 1400 |
| A14G U45C | 0.00289 ± 0.0011 | 0.000196 ± 4.6e-05 | 0.000403 ± 9.2e-05 | 0.00149 ± 0.00031 | 0.00215 ± 0.00057 |  |  |
| A15U | 0.0104 ± 0.0019 | 0.000227 ± 4e-06 | 0.00061 ± 2.2e-05 | 0.00245 ± 8.9e-05 | 0.00682 ± 0.00026 | 0.00847 ± 0.00024 | 1950 ± 440 |
| A15C | 0.011 ± 0.00069 | 0.000227 ± 4.1e-06 | 0.00074 ± 5.5e-05 | 0.00248 ± 0.0001 |  | 0.00932 ± 0.00026 | 1940 ± 150 |
| A15G | 0.0648 ± 0.0031 | 0.00118 ± 2.4e-05 | 0.00423 ± 0.00032 | 0.0144 ± 0.00063 | 0.0326 ± 0.0018 | 0.0552 ± 0.0025 | 2180 ± 120 |
| G29A A53G | 0.00571 ± 0.0021 | 0.000136 ± 3.6e-05 | 0.000249 ± 4.3e-05 | 0.000915 ± 0.00019 | 0.00162 ± 0.00059 | 0.00483 ± 0.00087 | 3380 ± 1700 |
| G29A G63C | < 1e-05 | < 1e-05 |  |  | < 1e-05 | < 1e-05 |  |
| G29C U69C | 0.000103 ± 2.8e-05 |  | 8.98e-05 ± 2.2e-05 | 0.000129 ± 2.2e-05 | 0.000164 ± 3e-05 | 6.68e-05 ± 1.6e-05 |  |
| G29C A48C | 1.23e-05 ± 3.5e-06 | < 1e-05 | < 1e-05 |  |  |  |  |
| C16A U47G | 0.000198 ± 3e-05 |  | 6.15e-05 ± 1.2e-05 | 9.31e-05 ± 7.8e-06 | 0.000184 ± 2.7e-05 | 0.000186 ± 2.3e-05 | 631 ± 230 |
| A15U G35A | < 1e-05 | < 1e-05 |  |  |  | < 1e-05 |  |
| G29U C34G | < 1e-05 | < 1e-05 |  |  |  | < 1e-05 |  |
| A15U C16G | 0.00121 ± 0.00041 | 2.88e-05 ± 1.4e-05 | 8.8e-05 ± 1.9e-05 | 0.000169 ± 5.1e-05 | 0.000786 ± 0.0002 | 0.000952 ± 0.00022 | 2570 ± 1300 |
| A14U C67A | 0.00153 ± 0.00048 | 6.24e-05 ± 7.4e-06 | 0.000172 ± 2.5e-05 | 0.000406 ± 5.4e-05 | 0.00137 ± 0.00031 | 0.00155 ± 0.00023 | 1240 ± 540 |
| C16G U56A | 0.00335 ± 0.00047 | 5.21e-05 ± 9.6e-06 | 0.000189 ± 6.3e-05 | 0.000593 ± 0.00014 | 0.00135 ± 0.00026 | 0.00286 ± 0.00043 | 2810 ± 590 |
| A15G C67A C71U | 0.000877 ± 0.00033 | 7.86e-05 ± 1.3e-05 |  | 0.000523 ± 0.00013 | 0.000455 ± 0.00016 | 0.00139 ± 0.00024 |  |
| A15U U46C | 0.000336 ± 2.6e-05 |  | 2.98e-05 ± 1.3e-05 | 0.000111 ± 1.1e-05 | 0.000249 ± 3.3e-05 | 0.000288 ± 2.9e-05 | 1290 ± 210 |
| C16A U46G C70G | 2.12e-05 ± 3.1e-06 |  |  |  |  |  |  |
| C16G U47C | 0.00027 ± 0.00013 |  |  | 0.000231 ± 7.9e-05 | 0.000192 ± 5.1e-05 |  |  |
| C16U G63U | 1.26e-05 ± 2.3e-06 |  |  |  |  |  |  |
